The values that follow come from patent publication US20210347842A1 (Eli Lilly, published 2021).

What is called Kd is the constant that tells how readily two partners part at equilibrium.

The target in one assay is T1, cynomolgus monkey PD-1 (cynomolgus monkey, UniProt B0LAJ3 25-170).
T1 construct: construct not described; also called cynomologous monkey PD-1
Nature of the assay: not stated in the sentence (BLI named in the next sentence), 25 C.

Assay [1] has as its target T2, human PD-1 (human, UniProt Q15116 21-170). Nature of the assay: bio-layer interferometry (BLI).
Assay [2] concerns the target T2, human PD-1. In words: not stated in the sentence (BLI named in the next sentence), 25 C; 25 C; stated bound in the text.

T2 sequence (Q15116 21-170 limits assumed, form in doubt): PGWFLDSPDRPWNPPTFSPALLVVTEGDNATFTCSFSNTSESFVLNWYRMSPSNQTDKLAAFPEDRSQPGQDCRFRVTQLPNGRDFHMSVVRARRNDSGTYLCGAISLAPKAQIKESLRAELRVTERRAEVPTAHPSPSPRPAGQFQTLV
T1 sequence (B0LAJ3 entry or part of it limits assumed): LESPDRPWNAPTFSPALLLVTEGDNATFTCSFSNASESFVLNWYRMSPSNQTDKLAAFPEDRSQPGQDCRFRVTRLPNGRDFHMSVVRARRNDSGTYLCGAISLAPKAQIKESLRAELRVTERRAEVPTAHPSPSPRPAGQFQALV

B1: AM0001 (antibody, human IgG4 S228P, lambda, V domains shown)
VH: EVQLLESGGGLVQPGGSLRLSCPASGFTFSSYAMSWVRQAPGKGLGWVSDISGGGGTTYYADSVKGRFTISRDNSKNTLYLQMNSLRGEDTAVYYCAKSGTVVTDFDYWGQGTLVTVSS
VL: SYVLTQPPSVSVAPGQTARVTCGGNSIGSYSVHWYQQKPGQAPVLVVYDDSDRPSGIPERFSGSNSGNTAALTISRVEAGDEADYYCQVWDTSSYWVFGGGTKLTVLG
notes: Monoclonal antibody with lambda 2 light chain and hinge-stabilized IgG4 (S228P) heavy chain; also called PD1-antagonist antibody
In the case of B1, the Kd with cynomolgus monkey PD-1 is ≤ 0.01 nM; with human PD-1 [1], < 0.001 nM; with human PD-1 [2], ≤ 0.01 nM.
